This is an account of results in paper PMC4729957, “The Atg1–kinase complex tethers Atg9-vesicles to initiate autophagy” (Nature Communications, 2016).

T1: Atg9^core (Atg9^281–779), reconstituted in proteoliposomes (S. cerevisiae, UniProt Q12142 281-779)
T1 construct: Atg9, S. cerevisiae BY4741, conserved core region, residues 281–779; modified pET28a(+) vector; about 50% of the protein in the proteoliposomes has its cytoplasmic domains outside; liposomes of cholesterol, POPE, POPC, POPS, without PI; also called Atg9–PLs; Atg9-PL; source: E. coli Rosetta, solubilised in LDAO, purified (Ni-NTA, SEC), reconstituted in liposomes; not shown: His tag, C-terminal, …
T1 sequence (looked up): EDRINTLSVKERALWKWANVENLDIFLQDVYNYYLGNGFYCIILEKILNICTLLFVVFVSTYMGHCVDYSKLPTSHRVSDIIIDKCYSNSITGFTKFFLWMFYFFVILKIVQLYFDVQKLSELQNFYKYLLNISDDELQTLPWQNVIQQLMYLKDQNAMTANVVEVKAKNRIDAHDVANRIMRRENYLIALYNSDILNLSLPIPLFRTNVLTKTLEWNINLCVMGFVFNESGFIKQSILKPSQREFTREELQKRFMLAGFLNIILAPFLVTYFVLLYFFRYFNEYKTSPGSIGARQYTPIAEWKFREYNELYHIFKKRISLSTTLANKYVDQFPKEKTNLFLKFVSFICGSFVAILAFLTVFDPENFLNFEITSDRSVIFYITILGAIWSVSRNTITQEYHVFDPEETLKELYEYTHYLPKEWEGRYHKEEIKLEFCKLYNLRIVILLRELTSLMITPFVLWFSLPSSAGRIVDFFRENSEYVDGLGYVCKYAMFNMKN

T2: Atg1 (S. cerevisiae, UniProt P53104 1-897, phosphothreonine at 226 (T226))
T2 construct: Atg1, S. cerevisiae BY4741, open reading frame from genomic DNA; also called full-length Atg1; Atg1–kinase; source: High Five (BTI-TN-5B1–4) insect cells, purified (Ni-NTA, SEC)
T2 sequence (looked up): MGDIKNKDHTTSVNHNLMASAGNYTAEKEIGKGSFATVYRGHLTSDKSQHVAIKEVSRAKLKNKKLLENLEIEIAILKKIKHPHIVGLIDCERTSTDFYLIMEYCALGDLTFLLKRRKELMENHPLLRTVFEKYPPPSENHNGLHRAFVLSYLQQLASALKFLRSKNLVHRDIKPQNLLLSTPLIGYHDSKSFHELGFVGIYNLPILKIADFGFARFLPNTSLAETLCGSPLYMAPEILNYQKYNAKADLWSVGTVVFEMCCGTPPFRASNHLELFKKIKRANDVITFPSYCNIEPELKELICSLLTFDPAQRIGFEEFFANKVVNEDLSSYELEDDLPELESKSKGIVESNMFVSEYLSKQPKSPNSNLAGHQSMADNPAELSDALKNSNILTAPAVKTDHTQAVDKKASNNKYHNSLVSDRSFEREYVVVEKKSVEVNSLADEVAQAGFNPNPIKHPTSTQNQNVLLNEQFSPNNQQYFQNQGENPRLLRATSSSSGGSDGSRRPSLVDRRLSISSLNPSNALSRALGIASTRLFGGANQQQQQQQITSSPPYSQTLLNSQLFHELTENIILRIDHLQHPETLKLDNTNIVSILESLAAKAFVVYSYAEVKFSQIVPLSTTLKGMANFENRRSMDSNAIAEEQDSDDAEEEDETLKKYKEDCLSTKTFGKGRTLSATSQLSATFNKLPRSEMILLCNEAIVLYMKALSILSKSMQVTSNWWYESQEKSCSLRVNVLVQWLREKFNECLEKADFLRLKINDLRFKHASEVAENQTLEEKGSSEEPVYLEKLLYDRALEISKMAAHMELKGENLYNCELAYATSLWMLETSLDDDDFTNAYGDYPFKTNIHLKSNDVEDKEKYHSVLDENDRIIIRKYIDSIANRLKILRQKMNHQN

B1: Atg17 (natural protein, S. cerevisiae, UniProt Q06410 1-417, looked up)
chain: MNEADVTKFVNNARKTLTDAQLLCSSANLRIVDIKKKLSSWQLSISKLNFLIVGLRQQGKFLYTILKEGIGTKLIQKQWNQAVLVVLVDEMKYWQYEITSKVQRLDGIVNELSISEKDDTDPSKLGDYISRDNVNLLNDKLKEVPVIERQIENIKLQYENMVRKVNKELIDTKLTDVTQKFQSKFGIDNLMETNVAEQFSRELTDLEKDLAEIMNSLTQHFDKTLLLQDKKIDNDEREELFKVVQGDDKELYNIFKTLHEVIDDVDKTILNLGQFLQAKIKEKTELHSEVSEIINDFNRNLEYLLIFKDISNLIDSFKNSCTQDIQTTKELCEFYDNFEESYGNLVLEAKRRKDVANRMKTILKDCEKQLQNLDAQDQEERQNFIAENGTYLPETIWPGKIDDFSSLYTLNYNVKNP
notes: Atg17, S. cerevisiae BY4741, open reading frame from genomic DNA; expressed from pST39; also called full-length Atg17; Atg17-dimer; source: E. coli Rosetta, purified (Ni-NTA, SEC); not shown: His6, N-terminal, cleaved
B2: Atg13(P), Atg13 phosphorylated by Atg1 in vitro (natural protein, S. cerevisiae, UniProt Q06628 1-738, looked up)
chain: MVAEEDIEKQVLQLIDSFFLKTTLLICSTESSRYQSSTENIFLFDDTWFEDHSELVSELPEIISKWSHYDGRKELPPLVVETYLDLRQLNSSHLVRLKDHEGHLWNVCKGTKKQEIVMERWLIELDNSSPTFKSYSEDETDVNELSKQLVLLFRYLLTLIQLLPTTELYQLLIKSYNGPQNEGSSNPITSTGPLVSIRTCVLDGSKPILSKGRIGLSKPIINTYSNALNESNLPAHLDQKKITPVWTKFGLLRVSVSYRRDWKFEINNTNDELFSARHASVSHNSQGPQNQPEQEGQSDQDIGKRQPQFQQQQQPQQQQQQQQQQQRQHQVQTQQQRQIPDRRSLSLSPCTRANSFEPQSWQKKVYPISRPVQPFKVGSIGSQSASRNPSNSSFFNQPPVHRPSMSSNYGPQMNIEGTSVGSTSKYSSSFGNIRRHSSVKTTENAEKVSKAVKSPLQPQESQEDLMDFVKLLEEKPDLTIKKTSGNNPPNINISDSLIRYQNLKPSNDLLSEDLSVSLSMDPNHTYHRGRSDSHSPLPSISPSMHYGSLNSRMSQGANASHLIARGGGNSSTSALNSRRNSLDKSSNKQGMSGLPPIFGGESTSYHHDNKIQKYNQLGVEEDDDDENDRLLNQMGNSATKFKSSISPRSIDSISSSFIKSRIPIRQPYHYSQPTTAPFQAQAKFHKPANKLIDNGNRSNSNNNNHNGNDAVGVMHNDEDDQDDDLVFFMSDMNLSKEG
modifications: phosphoserine at 428, 429 and 496 and at several other positions (Supplementary Table 1)
notes: Atg13, S. cerevisiae BY4741; also called phosphorylated Atg13; source: E. coli Rosetta, purified; phosphorylated by adding ATP to fully assembled Atg1^PC
B3: Atg13 (natural protein, S. cerevisiae, UniProt Q06628 1-738, looked up)
chain: B2 chain
notes: Atg13, S. cerevisiae BY4741, open reading frame from genomic DNA; source: E. coli Rosetta, purified (Ni-NTA, anion exchange)

Data set [1] concerns the molecule itself. The data set is described as follows: dynamic light scattering; Stokes radii (RH) of the purified proteins and complexes in solution.
The target in the data set “Atg13” is B3. The data set is described as follows: SEC; complexes assembled from purified subunits or subcomplexes, 30 min at room temperature, then gel filtration on Superose 6. Conditions: both partners purified. For orientation: SEC sorts molecules by how far they enter the pores of the column.
Data set [2] addresses T1, Atg9^core (Atg9^281–779), reconstituted …. The data set is described as follows: co-floatation with proteoliposomes; Atg9 variant held in proteoliposomes (synthetic lipids without PI), partner in solution at 1:1, Nycodenz step gradient, 650,000g 2 h at 4 °C, 25 mM HEPES pH 7.0, 100 mM NaCl; top fraction read by SDS–PAGE or α-myc immunoblot. Particulars: both partners purified. Background: Immunoblotting shows a protein as a band on a membrane.

The target in data set [3] is T2, Atg1. The experiment in a line: SEC; ATP added to fully assembled Atg1^PC (Atg13, Atg29 and Atg1 become phosphorylated by Atg1); SEC and SDS–PAGE of the fractions. Conditions: both partners purified.
Data set [4] has as its target T2, Atg1. The data set is described as follows: SEC; complexes assembled from purified subunits or subcomplexes, 30 min at room temperature, then gel filtration on Superose 6. Conditions: both partners purified.

Consider B1, for which, in data set [1], the stoichiometry N – broadly, a count of units in the complex or per binding partner – stood at 2. Moreover, the binding result (with Atg13; in data set [2]) was “binds” in each case. B2: the binding result with Atg1 [3] was “binds”. For the molecule B3, in the data set with Atg1 [4], the binding result was “binds”.
